According to article PMC11722267:
pKd: −log10 of the molar value.

Molecular target: 5-FAM-labelled VISTA WT peptide (fluorescence polarization probe) (human)
Experiment: fluorescence polarisation

Chain of 5-FAM-labelled VISTA WT peptide (fluorescence polarization probe) (human) (Q9H7M9 232-258): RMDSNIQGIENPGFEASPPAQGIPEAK

**Q.** With “recombinant NUMB PTB domain (domain or fragment)” as the substance, how does the pKd read?
**A.** 5.26
